Source: publication PMC3437207, “G-quadruplex recognition activities of E. Coli MutS”
Residue numbers refer to the chain shown, from its start.

Experiments:
MutS F36A [1] = biological target: T1, MutS F36A (Escherichia coli, UniProt P23909 1-853, F36A); assay: EMSA; 19-150 nM protein; no nucleotide; 5 mM Mg2+; 20 mM Tris pH 7.6, 5 mM MgCl2, 1 mM DTT, 50 ug/ml BSA, 10 mM KCl, 200 fmol homoduplex competitor, 10-20 fmol labeled DNA in 20 ul; 6% native PAGE 0.5X TBE with; details: protein: recombinant; tags: His; chain copies: 2; label: 5' 32P; blunt; single G-T mismatch at position 14 of strand 1
T1 sequence: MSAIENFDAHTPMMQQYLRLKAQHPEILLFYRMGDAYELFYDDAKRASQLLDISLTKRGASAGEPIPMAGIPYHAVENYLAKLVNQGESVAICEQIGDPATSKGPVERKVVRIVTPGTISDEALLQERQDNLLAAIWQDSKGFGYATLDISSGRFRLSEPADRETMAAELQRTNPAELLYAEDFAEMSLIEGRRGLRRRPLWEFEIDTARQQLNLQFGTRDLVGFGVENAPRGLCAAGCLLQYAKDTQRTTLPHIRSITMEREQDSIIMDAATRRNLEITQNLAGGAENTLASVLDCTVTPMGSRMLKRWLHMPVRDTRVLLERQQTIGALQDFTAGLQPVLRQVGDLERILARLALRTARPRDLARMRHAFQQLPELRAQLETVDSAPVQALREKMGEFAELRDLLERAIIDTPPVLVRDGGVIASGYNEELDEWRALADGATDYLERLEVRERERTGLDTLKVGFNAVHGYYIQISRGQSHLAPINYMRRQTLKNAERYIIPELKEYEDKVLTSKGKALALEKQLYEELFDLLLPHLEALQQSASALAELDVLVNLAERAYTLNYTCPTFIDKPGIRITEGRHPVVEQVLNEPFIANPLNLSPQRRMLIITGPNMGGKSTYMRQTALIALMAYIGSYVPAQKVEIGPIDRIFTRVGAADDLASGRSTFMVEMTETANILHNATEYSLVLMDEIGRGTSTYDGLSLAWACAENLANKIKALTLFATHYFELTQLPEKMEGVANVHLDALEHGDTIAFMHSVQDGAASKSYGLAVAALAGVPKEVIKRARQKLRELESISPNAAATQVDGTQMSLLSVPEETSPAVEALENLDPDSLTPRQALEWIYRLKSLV

MutS F36A [2] = biological target: T1, MutS F36A; assay: EMSA; 38-150 nM protein; 20 mM Tris pH 7.6, 5 mM MgCl2, 1 mM DTT, 50 ug/ml BSA, 10 mM KCl, 200 fmol homoduplex competitor, 10-20 fmol labeled DNA in 20 ul; 6% native PAGE 0.5X TBE with; details: protein: recombinant; tags: His; chain copies: 2; label: 32P; blunt

B1: G-T mismatch heteroduplex (dsDNA)
DNA 1: CTAGCAAGCTTTCGATTCTAGAAATTCGGC
DNA 2: GCCGAATTTCTAGAATTGAAAGCTTGCTAG
- binding result (MutS F36A [1]): no binding

B2: Homoduplex (dsDNA)
DNA 1: B1 DNA 1 with G14A
DNA 2: B1 DNA 2
- binding result (MutS F36A [2]): no binding
